Test results from IntAct's records for PubMed 22982544.

B1: - (Plasmodium falciparum (isolate 3D7)), C0H519 (parent)
chain: MSDQINVKHKIGDTCRKLYSYFKTVNNTSTFIQNGTLTPSEFVDSGDFLVYKFKTWEWQEADKDRVVPYLPENKQFLITKNVPCKQRIKDLNNIVHDLKIVDNDWLLPSYEEDNNPTDIYEYLPNSEYTINDKNIYNYEEEEEDDNCDEAIDINNFYMENNLIKEHDPASINSTSCYSKNMLHDNLMKIRTYDVSITYDKYYQTPRIWLFGYNENGDPLKSEEIFEDILSDYSYKTVTYDPHPCTGVMTASIHPCKHAEAILNVVNNWISEEKEPRHDLYLLFLLKFISGVIPTIEYDFTTDIEIPRDSNAGL
B2: Autophagy-related protein (Plasmodium falciparum (isolate 3D7)), Q8IJK2 (parent)
chain: MPSLKDEVSFENRVAETHKIRSKYPNRIPVVCERANRSNLPIIEKKKFLVPMNMLVGEFKFILHQHINQSAYGSNMKLFRERTIYLFVNNIVPKTGLLMQDLYEMYKDEDGYLYMEYSCESCLG

Variants of: B1
Conditions: with q8ijk2, Q8IJK2

| Variant | effect of a mutation on the interaction |
| --- | --- |
| MSDQINVKHKIGDTCRKLYSYFKTVNNTSTFIQNGTLTPSEFVDSGDFLVYKFKTWEWQEADKDRVVPYLPENKQFLITKNVPCKQRIKDLNNIVHDLKIVDNDALLPSYEEDNNPTDIYEYLPNSEYTINDKNIYNYEEEEEDDNCDEAIDINNFYMENNLIKEHDPASINSTSCYSKNMLHDNLMKIRTYDVSITYDKYYQTPRIWLFGYNENGDPLKSEEIFEDILSDYSYKTVTYDPHPCTGVMTASIHPCKHAEAILNVVNNWISEEKEPRHDLYLLFLLKFISGVIPTIEYDFTTDIEIPRDSNAGL [W105A] | decreasing interaction |

Variants of: B2
Conditions: with c0h519, C0H519

| Variant | effect of a mutation on the interaction |
| --- | --- |
| MPSLKDEVSFENRVAETHEIRSKYPNRIPVVCERANRSNLPIIEKKEFLVPMNMLVGEFKFILHQHINQSAYGSNMKLFRERTIYLFVNNIVPKTGLLMQDLYEMYKDEDGYLYMEYSCESCLG | disrupting interaction |
| MPSLKDEVSFENRVAETHKIRSKYPNEIPVVCERANRSNLPIIEKKKFLVPMNMLVGEFKFILHQHINQSAYGSNMKLFRERTIYLFVNNIVPKTGLLMQDLYEMYKDEDGYLYMEYSCESCLG | disrupting interaction |
| MPSLKDEVSFENRVAETHKIRSKYPNRIPVVCERANRSNLPIIASAKFLVPMNMLVGEFKFILHQHINQSAYGSNMKLFRERTIYLFVNNIVPKTGLLMQDLYEMYKDEDGYLYMEYSCESCLG | decreasing interaction |
| MPSLKDEVSFENRVAETHKIRSKYPNRIPVVCERANRSNLPIIEKKEFLVPMNMLVGEFKFILHQHINQSAYGSNMKLFRERTIYLFVNNIVPKTGLLMQDLYEMYKDEDGYLYMEYSCESCLG | disrupting interaction |
| MPSLKDEVSFENRVAETHKIRSKYPNRIPVVCERANRSNLPIIEKKKFAVPMNMLVGEFKFILHQHINQSAYGSNMKLFRERTIYLFVNNIVPKTGLLMQDLYEMYKDEDGYLYMEYSCESCLG | decreasing interaction |
